# Measurements as given in paper PMC4267625, “Ubiquitin recognition by FAAP20 expands the complex interface beyond the canonical UBZ domain” (Nucleic Acids Research, 2014).
# Residue numbers refer to the chain shown, from its start. Names and notes keep the numbering of the source.
# B1: human FAAP20 UBZ (residues 140-180 of FAAP20 isoform 2), wild type (domain or fragment, UniProt Q6NZ36 140-180, looked up)
# chain: GAAALRSCPMCQKEFAPRLTQLDVDSHLAQCLAESTEDVTW
# notes: ends at the C-terminal W180; ZnSO4 was added at induction; 15N/13C-labelled for NMR; also called WT FAAP20; apo FAAP20; source: E. coli BL21 STAR (DE3), purified (Ni-NTA, TEV cleavage, second Ni-NTA, Superdex 75); not shown: His10, N-terminal, cleaved; GB1, N-terminal, cleaved
# B2: human FAAP20 UBZ L171A (domain or fragment, UniProt Q6NZ36 140-180, looked up)
# chain: B1 chain with L32A
# notes: source: E. coli BL21 STAR (DE3), purified (Ni-NTA, TEV cleavage, second Ni-NTA, Superdex 75); not shown: His10, N-terminal, cleaved; GB1, N-terminal, cleaved
# B3: human FAAP20 UBZ W180A (domain or fragment, UniProt Q6NZ36 140-180, looked up)
# chain: B1 chain with W41A
# notes: also called FAAP20 W180A mutant; source: E. coli BL21 STAR (DE3), purified (Ni-NTA, TEV cleavage, second Ni-NTA, Superdex 75); not shown: His10, N-terminal, cleaved; GB1, N-terminal, cleaved
# B4: human FAAP20 UBZ A168Y (domain or fragment, UniProt Q6NZ36 140-180, looked up)
# chain: B1 chain with A29Y
# notes: as for B2
# B5: human FAAP20 UBZ D164A (domain or fragment, UniProt Q6NZ36 140-180, looked up)
# chain: B1 chain with D25A
# notes: as for B2
# Biological target: T1, human ubiquitin, wild type (human, UniProt P0CG48 1-76)
# T1 construct: ubiquitin, human; the mature ubiquitin unit cut from its precursor; also called WT ubiquitin; source: E. coli BL21 STAR (DE3), purified (Ni-NTA, thrombin cleavage, benzamidine column, second Ni-NTA, Superdex 75); not shown: His6, N-terminal, cleaved
# Test: ITC; ubiquitin (2-3 mM) titrated into FAAP20 (0.2-0.3 mM); 25 mM sodium phosphate, 100 mM KCl, pH 7.0; 25°C; 28 injections of 10 μl; one-site binding fit
# Settings: both partners purified
row,Kd,Binder
1,9.26 µM,B1
2,529 µM,B2
3,> 600 µM,B3
4,> 600 µM,B4
5,> 600 µM,B5
